Target: recombinant CypA (UniProt P62937)
Test: cell-based or functional assay

Sequence of recombinant CypA (P62937 whole entry): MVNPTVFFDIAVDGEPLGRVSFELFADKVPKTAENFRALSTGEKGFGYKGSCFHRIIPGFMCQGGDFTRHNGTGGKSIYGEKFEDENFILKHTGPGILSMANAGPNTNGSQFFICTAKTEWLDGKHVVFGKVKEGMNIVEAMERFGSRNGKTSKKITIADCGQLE

Row | Substance | CypA PPIase IC50 [nM]
1 | Cyclosporine A, 1 (peptide) | 9.7
2 | DEBIO-025, 2 (peptide) | 0.8

Reference: patent publication US20120251581A1
